B1: 1ZHC (parent)
chain: HEFRDEISVLKANNPHFDKIFEKHNQLDDDIKTAEQQNASDAEVSHMKKQKLKLKDEIHSMIIEYREK

Variants of: B1
Experiment: folding stability dG (cDNA display proteolysis); higher = more stable
Settings: PBS, room temperature
For HEFRPEISVLKANNPHFDKIFEKHNQLDDDIKTAEQQNASDAEVSHMKKQKLKLKDEIHSMIIEYREK, the “folding stability dG” value was -0.163 kcal/mol.
With HEFRVEISVLKANNPHFDKIFEKHNQLDDDIKTAEQQNASDAEVSHMKKQKLKLKDEIHSMIIEYREK the “folding stability dG” value was 0.719 kcal/mol.
For HEFRHEISVLKANNPHFDKIFEKHNQLDDDIKTAEQQNASDAEVSHMKKQKLKLKDEIHSMIIEYREK, the “folding stability dG” value was 1.23 kcal/mol.
For HEFRYEISVLKANNPHFDKIFEKHNQLDDDIKTAEQQNASDAEVSHMKKQKLKLKDEIHSMIIEYREK, the “folding stability dG” value was 1.53 kcal/mol.
With HEFRSEISVLKANNPHFDKIFEKHNQLDDDIKTAEQQNASDAEVSHMKKQKLKLKDEIHSMIIEYREK the “folding stability dG” value was 0.508 kcal/mol.
In the case of HEFRMEISVLKANNPHFDKIFEKHNQLDDDIKTAEQQNASDAEVSHMKKQKLKLKDEIHSMIIEYREK, the “folding stability dG” value is reported as 0.985 kcal/mol.
With HEFRFEISVLKANNPHFDKIFEKHNQLDDDIKTAEQQNASDAEVSHMKKQKLKLKDEIHSMIIEYREK the “folding stability dG” value was 1.36 kcal/mol.
With HEFRQEISVLKANNPHFDKIFEKHNQLDDDIKTAEQQNASDAEVSHMKKQKLKLKDEIHSMIIEYREK the “folding stability dG” value was 0.415 kcal/mol.
With HEFRAEISVLKANNPHFDKIFEKHNQLDDDIKTAEQQNASDAEVSHMKKQKLKLKDEIHSMIIEYREK the “folding stability dG” value was 0.255 kcal/mol.
With HEFREEISVLKANNPHFDKIFEKHNQLDDDIKTAEQQNASDAEVSHMKKQKLKLKDEIHSMIIEYREK the “folding stability dG” value was 0.721 kcal/mol.
For HEFRIEISVLKANNPHFDKIFEKHNQLDDDIKTAEQQNASDAEVSHMKKQKLKLKDEIHSMIIEYREK, the “folding stability dG” value was 1.04 kcal/mol.
In the case of HEFRKEISVLKANNPHFDKIFEKHNQLDDDIKTAEQQNASDAEVSHMKKQKLKLKDEIHSMIIEYREK, the “folding stability dG” value is reported as 0.902 kcal/mol.
With HEFRLEISVLKANNPHFDKIFEKHNQLDDDIKTAEQQNASDAEVSHMKKQKLKLKDEIHSMIIEYREK the “folding stability dG” value was 0.917 kcal/mol.
For HEFRGEISVLKANNPHFDKIFEKHNQLDDDIKTAEQQNASDAEVSHMKKQKLKLKDEIHSMIIEYREK, the “folding stability dG” value was 0.455 kcal/mol.
For HEFRTEISVLKANNPHFDKIFEKHNQLDDDIKTAEQQNASDAEVSHMKKQKLKLKDEIHSMIIEYREK, the “folding stability dG” value was 0.722 kcal/mol.
With HEFRREISVLKANNPHFDKIFEKHNQLDDDIKTAEQQNASDAEVSHMKKQKLKLKDEIHSMIIEYREK the “folding stability dG” value was 0.858 kcal/mol.
In the case of HEFRNEISVLKANNPHFDKIFEKHNQLDDDIKTAEQQNASDAEVSHMKKQKLKLKDEIHSMIIEYREK, the “folding stability dG” value is reported as 0.625 kcal/mol.
With HEFRWEISVLKANNPHFDKIFEKHNQLDDDIKTAEQQNASDAEVSHMKKQKLKLKDEIHSMIIEYREK the “folding stability dG” value was 1.47 kcal/mol.
In the case of HEFRDEIIVLKANNPHFDKIFEKHNQLDDDIKTAEQQNASDAEVSHMKKQKLKLKDEIHSMIIEYREK, the “folding stability dG” value is reported as 0.988 kcal/mol.
For HEFRDEIFVLKANNPHFDKIFEKHNQLDDDIKTAEQQNASDAEVSHMKKQKLKLKDEIHSMIIEYREK, the “folding stability dG” value was 1 kcal/mol.
With HEFRDEIMVLKANNPHFDKIFEKHNQLDDDIKTAEQQNASDAEVSHMKKQKLKLKDEIHSMIIEYREK the “folding stability dG” value was 1.4 kcal/mol.
For HEFRDEIDVLKANNPHFDKIFEKHNQLDDDIKTAEQQNASDAEVSHMKKQKLKLKDEIHSMIIEYREK, the “folding stability dG” value was 0.953 kcal/mol.
In the case of HEFRDEICVLKANNPHFDKIFEKHNQLDDDIKTAEQQNASDAEVSHMKKQKLKLKDEIHSMIIEYREK, the “folding stability dG” value is reported as 1.67 kcal/mol.
With HEFRDEIKVLKANNPHFDKIFEKHNQLDDDIKTAEQQNASDAEVSHMKKQKLKLKDEIHSMIIEYREK the “folding stability dG” value was 1.21 kcal/mol.
In the case of HEFRDEINVLKANNPHFDKIFEKHNQLDDDIKTAEQQNASDAEVSHMKKQKLKLKDEIHSMIIEYREK, the “folding stability dG” value is reported as 0.922 kcal/mol.
With HEFRDEIAVLKANNPHFDKIFEKHNQLDDDIKTAEQQNASDAEVSHMKKQKLKLKDEIHSMIIEYREK the “folding stability dG” value was 1.56 kcal/mol.
For HEFRDEIHVLKANNPHFDKIFEKHNQLDDDIKTAEQQNASDAEVSHMKKQKLKLKDEIHSMIIEYREK, the “folding stability dG” value was 0.57 kcal/mol.
With HEFRDEILVLKANNPHFDKIFEKHNQLDDDIKTAEQQNASDAEVSHMKKQKLKLKDEIHSMIIEYREK the “folding stability dG” value was 1.21 kcal/mol.
In the case of HEFRDEIGVLKANNPHFDKIFEKHNQLDDDIKTAEQQNASDAEVSHMKKQKLKLKDEIHSMIIEYREK, the “folding stability dG” value is reported as 0.671 kcal/mol.
With HEFRDEIEVLKANNPHFDKIFEKHNQLDDDIKTAEQQNASDAEVSHMKKQKLKLKDEIHSMIIEYREK the “folding stability dG” value was 1.32 kcal/mol.
For HEFWDEISVLKANNPHFDKIFEKHNQLDDDIKTAEQQNASDAEVSHMKKQKLKLKDEIHSMIIEYREK, the “folding stability dG” value was 1.49 kcal/mol.
In the case of HEFQDEISVLKANNPHFDKIFEKHNQLDDDIKTAEQQNASDAEVSHMKKQKLKLKDEIHSMIIEYREK, the “folding stability dG” value is reported as 1.08 kcal/mol.
In the case of HEFPDEISVLKANNPHFDKIFEKHNQLDDDIKTAEQQNASDAEVSHMKKQKLKLKDEIHSMIIEYREK, the “folding stability dG” value is reported as 0.834 kcal/mol.
In the case of HEFMDEISVLKANNPHFDKIFEKHNQLDDDIKTAEQQNASDAEVSHMKKQKLKLKDEIHSMIIEYREK, the “folding stability dG” value is reported as 1.13 kcal/mol.
For HEFYDEISVLKANNPHFDKIFEKHNQLDDDIKTAEQQNASDAEVSHMKKQKLKLKDEIHSMIIEYREK, the “folding stability dG” value was 1.25 kcal/mol.
With HEFEDEISVLKANNPHFDKIFEKHNQLDDDIKTAEQQNASDAEVSHMKKQKLKLKDEIHSMIIEYREK the “folding stability dG” value was 1.08 kcal/mol.
For HEFFDEISVLKANNPHFDKIFEKHNQLDDDIKTAEQQNASDAEVSHMKKQKLKLKDEIHSMIIEYREK, the “folding stability dG” value was 1.5 kcal/mol.
With HEFVDEISVLKANNPHFDKIFEKHNQLDDDIKTAEQQNASDAEVSHMKKQKLKLKDEIHSMIIEYREK the “folding stability dG” value was 0.547 kcal/mol.
With HEFNDEISVLKANNPHFDKIFEKHNQLDDDIKTAEQQNASDAEVSHMKKQKLKLKDEIHSMIIEYREK the “folding stability dG” value was 0.384 kcal/mol.
